From PMC9482650, “Quantitative fragmentomics allow affinity mapping of interactomes” (Nature Communications, 2022) come the findings set out here.

Substitutions are numbered along the chain they refer to.

Targets include DLG4_1, P78352; CASK, O14936; Inadl_4, Q8NI35; PTPN3, P26045; MAGI2_6, Q86UL8; ARHGEF12, Q9NZN5-2; FRMPD2_2, Q68DX3; PDLIM1, O00151; GRIP2_4, Q9C0E4; MAST2, Q6P0Q8.
Holding throughout (test): holdup assay
What all share (design): key: below the threshold = too weak to quantify, mostly under pKd 3.1 to 4

In another experiment the target is T1, NHERF3_3, Q5T2W1.
T1 sequence (Q5T2W1 238-333, limits assumed, looked up): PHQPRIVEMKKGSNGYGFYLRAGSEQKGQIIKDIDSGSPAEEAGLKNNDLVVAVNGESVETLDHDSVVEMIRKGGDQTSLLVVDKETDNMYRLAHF

The target in the next experiment is T2, LIN7B, Q9HAP6.
T2 sequence (Q9HAP6 88-185, limits assumed, looked up): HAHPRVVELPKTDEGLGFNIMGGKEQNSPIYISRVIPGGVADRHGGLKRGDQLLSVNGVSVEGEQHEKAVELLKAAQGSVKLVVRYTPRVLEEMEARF

Another experiment concerns the target T3, PDZD7_3, Q9H5P4.
T3 sequence (Q9H5P4 857-944, limits assumed, looked up): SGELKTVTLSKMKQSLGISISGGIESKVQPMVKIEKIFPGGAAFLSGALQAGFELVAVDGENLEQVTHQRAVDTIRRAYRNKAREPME

For another experiment, the target named is T4, SNTB1, Q13884.
T4 sequence (Q13884 107-205, limits assumed, looked up): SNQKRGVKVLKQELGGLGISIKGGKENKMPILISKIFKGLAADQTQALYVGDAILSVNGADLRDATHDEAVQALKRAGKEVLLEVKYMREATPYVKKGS

In the next experiment the target is T5, APBA2_2, Q99767.
T5 sequence (Q99767 654-744, limits assumed, looked up): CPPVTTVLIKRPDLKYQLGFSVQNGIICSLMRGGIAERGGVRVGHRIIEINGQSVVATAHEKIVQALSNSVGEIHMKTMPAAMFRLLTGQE

In the next experiment the target is T6, APBA1_2, Q02410.
T6 sequence (Q02410 742-832, limits assumed, looked up): T5 sequence (Q99767 654-744, limits assumed, looked up) with K10R, K15R, A59P, Q65H, A66I, S70A, F84Y, G89A

A further experiment addresses T7, GRIP1_5, Q9Y3R0.
T7 sequence (Q9Y3R0 568-668, limits assumed, looked up): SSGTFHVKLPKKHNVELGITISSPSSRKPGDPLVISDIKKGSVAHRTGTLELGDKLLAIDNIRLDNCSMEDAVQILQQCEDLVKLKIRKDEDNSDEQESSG

Another experiment deals with T8, NHERF3_4, Q5T2W1.
T8 sequence (Q5T2W1 373-468, limits assumed, looked up): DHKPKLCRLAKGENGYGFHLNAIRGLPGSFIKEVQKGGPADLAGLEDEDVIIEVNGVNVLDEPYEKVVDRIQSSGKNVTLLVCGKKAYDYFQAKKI

The target of a further experiment is T9, MPP2, Q14168.
T9 sequence (Q14168 180-250, limits assumed, looked up): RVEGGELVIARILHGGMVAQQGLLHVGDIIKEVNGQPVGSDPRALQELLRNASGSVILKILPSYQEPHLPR

The target of another experiment is T10, SIPA1L2, Q9P2F8.
T10 sequence (Q9P2F8 945-1036, limits assumed, looked up): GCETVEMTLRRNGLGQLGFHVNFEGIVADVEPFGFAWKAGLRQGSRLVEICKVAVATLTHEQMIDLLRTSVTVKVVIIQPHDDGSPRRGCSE

The target in a further experiment is T11, TX1BP3, O14907.
T11 sequence (O14907 10-122, limits assumed, looked up): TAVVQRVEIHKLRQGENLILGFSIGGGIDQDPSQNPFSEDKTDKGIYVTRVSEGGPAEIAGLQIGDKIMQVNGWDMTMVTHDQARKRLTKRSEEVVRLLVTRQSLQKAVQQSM

For another experiment, the target named is T12, ARHGAP21, Q5T5U3.
T12 sequence (Q5T5U3 45-169, limits assumed, looked up): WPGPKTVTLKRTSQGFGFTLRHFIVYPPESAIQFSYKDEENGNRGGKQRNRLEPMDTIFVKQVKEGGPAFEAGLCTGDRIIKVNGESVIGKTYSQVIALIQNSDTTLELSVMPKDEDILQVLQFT

The next experiment deals with T13, MPDZ_5, O75970.
T13 sequence (O75970 695-796, limits assumed, looked up): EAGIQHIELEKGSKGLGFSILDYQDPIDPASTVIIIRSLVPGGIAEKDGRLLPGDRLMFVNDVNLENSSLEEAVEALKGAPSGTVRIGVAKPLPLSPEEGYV

Another experiment deals with T14, MPP7, Q5T2T1.
T14 sequence (Q5T2T1 134-230, limits assumed, looked up): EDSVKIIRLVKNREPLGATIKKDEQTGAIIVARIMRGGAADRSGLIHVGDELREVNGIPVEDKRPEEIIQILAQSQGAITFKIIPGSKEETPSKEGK

[1] abbreviates: plain residues with an end cap or a label only (N-terminal biotin on a linker: ado-ado).
Where [2] appears, read: plain residues with an end cap or a label only (N-terminal biotin on a linker: ahx).
Setting [3] is: plain residues with an end cap or a label only (N-terminal biotin on a linker: (peg)3).

Sequence of PTPN3, P26045 (P26045 505-587): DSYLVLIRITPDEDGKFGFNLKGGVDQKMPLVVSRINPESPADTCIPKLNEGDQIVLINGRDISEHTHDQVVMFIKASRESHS
Sequence of MAGI2_6, Q86UL8 (Q86UL8 1141-1229): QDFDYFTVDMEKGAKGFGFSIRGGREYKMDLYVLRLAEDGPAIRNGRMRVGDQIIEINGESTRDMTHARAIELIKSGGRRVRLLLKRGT
Sequence of ARHGEF12, Q9NZN5-2 (Q9NZN5 other isoform, or with tags, fused parts or gaps): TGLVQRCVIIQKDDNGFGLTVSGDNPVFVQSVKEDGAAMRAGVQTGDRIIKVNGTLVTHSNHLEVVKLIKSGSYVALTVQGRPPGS
Sequence of FRMPD2_2, Q68DX3 (Q68DX3 944-1038): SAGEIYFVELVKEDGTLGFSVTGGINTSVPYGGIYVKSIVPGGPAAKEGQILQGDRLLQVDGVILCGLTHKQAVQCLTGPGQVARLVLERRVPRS
Sequence of GRIP2_4, Q9C0E4 (Q9C0E4 446-548): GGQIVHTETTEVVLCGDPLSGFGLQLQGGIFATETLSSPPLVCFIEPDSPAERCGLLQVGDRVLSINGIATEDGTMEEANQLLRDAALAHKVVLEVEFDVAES
Sequence of PDLIM1, O00151 (O00151 1-87): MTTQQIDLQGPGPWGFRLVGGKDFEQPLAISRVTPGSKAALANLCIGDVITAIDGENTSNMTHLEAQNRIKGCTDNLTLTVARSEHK
Sequence of CASK, O14936 (O14936 487-570): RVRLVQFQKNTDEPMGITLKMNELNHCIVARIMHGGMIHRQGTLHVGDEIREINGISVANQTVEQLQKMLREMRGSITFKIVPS
Sequence of Inadl_4, Q8NI35 (Q8NI35 547-651): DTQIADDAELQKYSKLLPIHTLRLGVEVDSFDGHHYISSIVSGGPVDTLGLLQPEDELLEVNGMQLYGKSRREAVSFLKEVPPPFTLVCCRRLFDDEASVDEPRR
Sequence of DLG4_1, P78352 (P78352 62-152): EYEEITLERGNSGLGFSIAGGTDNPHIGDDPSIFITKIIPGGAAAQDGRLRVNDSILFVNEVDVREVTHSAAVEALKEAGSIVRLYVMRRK
Sequence of MAST2, Q6P0Q8 (Q6P0Q8 1099-1202): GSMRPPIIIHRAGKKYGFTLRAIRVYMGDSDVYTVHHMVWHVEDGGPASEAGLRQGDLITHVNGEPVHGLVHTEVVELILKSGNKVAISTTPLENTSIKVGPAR

B1: KCNJ4, P48050 (peptide)
chain: NISYRRESAI
As for B1, the pKd (commonly the Kd on a negative log10 scale, so that one unit is a factor of ten) is “below the threshold” with DLG4_1, P78352 (setting [1]); “below the threshold” in the experiment with CASK, O14936 (setting [1]); “below the threshold” with Inadl_4, Q8NI35 (setting [1]); “below the threshold” in the experiment with NHERF3_3, Q5T2W1 (setting [1]); 4.6 in the experiment with PTPN3, P26045 (setting [1]); “below the threshold” with MAGI2_6, Q86UL8 (setting [1]). Moreover, the negative logarithm of the Kd (pKd) was 3.74 with LIN7B, Q9HAP6 (setting [1]); 4.05 with PDZD7_3, Q9H5P4 (setting [1]); 4.03 in the experiment with SNTB1, Q13884 (setting [1]); “below the threshold” in the experiment with APBA2_2, Q99767 (setting [1]); “below the threshold” with APBA1_2, Q02410 (setting [1]); “below the threshold” with ARHGEF12, Q9NZN5-2 (setting [1]). Further, the pKd entry is on record as “below the threshold” with GRIP1_5, Q9Y3R0 (setting [1]); “below the threshold” in the experiment with FRMPD2_2, Q68DX3 (setting [1]); “below the threshold” with NHERF3_4, Q5T2W1 (setting [1]); “below the threshold” with MPP2, Q14168 (setting [1]); “below the threshold” in the experiment with SIPA1L2, Q9P2F8 (setting [1]); “below the threshold” with PDLIM1, O00151 (setting [1]). In addition, the negative-log Kd (pKd) entry is “below the threshold” in the experiment with GRIP2_4, Q9C0E4 (setting [1]); 4.72 in the experiment with MAST2, Q6P0Q8 (setting [1]); 4.82 with TX1BP3, O14907 (setting [1]); “below the threshold” with ARHGAP21, Q5T5U3 (setting [1]); “below the threshold” with MPDZ_5, O75970 (setting [1]); “below the threshold” with MPP7, Q5T2T1 (setting [1]).

B2: ABCA1, O95477 (peptide)
chain: QDEKVKESYV
On to B2, for which the pKd with DLG4_1, P78352 (setting [2]) was 4.52; with CASK, O14936 (setting [2]), “below the threshold”; with Inadl_4, Q8NI35 (setting [2]), “below the threshold”; with NHERF3_3, Q5T2W1 (setting [2]), 3.51; with PTPN3, P26045 (setting [2]), 5.04; with MAGI2_6, Q86UL8 (setting [2]), 4.53. Further, the pKd is 4.15 with LIN7B, Q9HAP6 (setting [2]); 5.35 with PDZD7_3, Q9H5P4 (setting [2]); 5.22 with SNTB1, Q13884 (setting [2]); “below the threshold” with APBA2_2, Q99767 (setting [2]); 4.29 with APBA1_2, Q02410 (setting [2]); 4.27 in the experiment with ARHGEF12, Q9NZN5-2 (setting [2]). Further, the pKd entry was “below the threshold” with GRIP1_5, Q9Y3R0 (setting [2]); 5.31 with FRMPD2_2, Q68DX3 (setting [2]); 3.5 with NHERF3_4, Q5T2W1 (setting [2]); “below the threshold” in the experiment with MPP2, Q14168 (setting [2]); “below the threshold” with SIPA1L2, Q9P2F8 (setting [2]); “below the threshold” with PDLIM1, O00151 (setting [2]). Moreover, the pKd entry with GRIP2_4, Q9C0E4 (setting [2]) is “below the threshold”; with MAST2, Q6P0Q8 (setting [2]) it was 4.68; in the experiment with TX1BP3, O14907 (setting [2]) it was 4.74; in the experiment with ARHGAP21, Q5T5U3 (setting [2]), “below the threshold”; with MPDZ_5, O75970 (setting [2]) it was 3.63; with MPP7, Q5T2T1 (setting [2]) it was “below the threshold”.

B3: KCNJ18, B7U540 (peptide)
chain: QRPYRRGSEI
Regarding B3, the pKd result in the experiment with DLG4_1, P78352 (setting [1]) is “below the threshold”; in the experiment with CASK, O14936 (setting [1]) it was “below the threshold”; in the experiment with Inadl_4, Q8NI35 (setting [1]), “below the threshold”; with NHERF3_3, Q5T2W1 (setting [1]) it was “below the threshold”; with PTPN3, P26045 (setting [1]), 4.02; in the experiment with MAGI2_6, Q86UL8 (setting [1]), “below the threshold”. The negative logarithm of the Kd (pKd) is 3.62 in the experiment with LIN7B, Q9HAP6 (setting [1]); “below the threshold” in the experiment with PDZD7_3, Q9H5P4 (setting [1]); “below the threshold” in the experiment with SNTB1, Q13884 (setting [1]); “below the threshold” with APBA2_2, Q99767 (setting [1]); 3.53 in the experiment with APBA1_2, Q02410 (setting [1]); 3.74 in the experiment with ARHGEF12, Q9NZN5-2 (setting [1]). Besides, the negative-log Kd (pKd) result was “below the threshold” with GRIP1_5, Q9Y3R0 (setting [1]); 3.73 with FRMPD2_2, Q68DX3 (setting [1]); “below the threshold” with NHERF3_4, Q5T2W1 (setting [1]); “below the threshold” in the experiment with MPP2, Q14168 (setting [1]); “below the threshold” with SIPA1L2, Q9P2F8 (setting [1]); “below the threshold” with PDLIM1, O00151 (setting [1]). Also, the negative logarithm of the Kd (pKd) result was “below the threshold” in the experiment with GRIP2_4, Q9C0E4 (setting [1]); 4.1 with MAST2, Q6P0Q8 (setting [1]); “below the threshold” with TX1BP3, O14907 (setting [1]); “below the threshold” in the experiment with ARHGAP21, Q5T5U3 (setting [1]); “below the threshold” with MPDZ_5, O75970 (setting [1]); “below the threshold” with MPP7, Q5T2T1 (setting [1]).

B4: WNV-NS5, Q9Q6P4 (peptide)
chain: RYEDTTLVEDTVL
Turning to B4, the pKd entry was “below the threshold” with DLG4_1, P78352 (setting [3]); “below the threshold” in the experiment with CASK, O14936 (setting [3]); “below the threshold” in the experiment with Inadl_4, Q8NI35 (setting [3]); “below the threshold” in the experiment with NHERF3_3, Q5T2W1 (setting [3]); 4.37 in the experiment with PTPN3, P26045 (setting [3]); 3.78 in the experiment with MAGI2_6, Q86UL8 (setting [3]). Besides, the pKd result with LIN7B, Q9HAP6 (setting [3]) was “below the threshold”; with PDZD7_3, Q9H5P4 (setting [3]) it was 4.54; with SNTB1, Q13884 (setting [3]) it was 4.27; with APBA2_2, Q99767 (setting [3]), “below the threshold”; in the experiment with APBA1_2, Q02410 (setting [3]), “below the threshold”; with ARHGEF12, Q9NZN5-2 (setting [3]) it was 3.92. Also, the negative logarithm of the Kd (pKd) entry in the experiment with GRIP1_5, Q9Y3R0 (setting [3]) was “below the threshold”; with FRMPD2_2, Q68DX3 (setting [3]), “below the threshold”; with NHERF3_4, Q5T2W1 (setting [3]), 3.96; in the experiment with MPP2, Q14168 (setting [3]), “below the threshold”; in the experiment with SIPA1L2, Q9P2F8 (setting [3]) it was “below the threshold”; in the experiment with PDLIM1, O00151 (setting [3]), “below the threshold”. Moreover, the pKd result with GRIP2_4, Q9C0E4 (setting [3]) was “below the threshold”; in the experiment with MAST2, Q6P0Q8 (setting [3]), 5.64; with TX1BP3, O14907 (setting [3]) it was “below the threshold”; with ARHGAP21, Q5T5U3 (setting [3]), 5.01; with MPDZ_5, O75970 (setting [3]), “below the threshold”; in the experiment with MPP7, Q5T2T1 (setting [3]) it was “below the threshold”.
